Source: US20250360083A1

Target: CXCR4 receptor on J-Lat8.4, Jurkat E6 and U1 cells (human) (UniProt P61073)
Assay: cell-based or functional assay

In the case of “cyclic peptide cyclo (D-Tyr-Orn-Arg-Nal-Gly-) (CycPep), conjugated to DSPE-PEG and displayed on CXCR4 targeted lipid nanoparticles (T-LNP)”, the viral DNA excision (excised band intensity on gel), J-Lat8.4 and Jurkat E6 against U1 is reported as 4 fold and the viral excision is reported as < 60%.
